Measurements published in patent US20180009871A1 (INTARCIA THERAPEUTICS, published 2018).
Where no end group is shown, it is not given here. [ ]: non-standard residue; d: D form. Aib = CC(C)(N)C(=O)O

B1: Compound A6 (peptide)
peptide: WSQGTFTSDYSKYLD[Aib]KRAQEFV[Aib]WLEDEPSSGAPPPS-OH
modifications: N-terminus assumed
SMILES: CC(C)C[C@H](NC(=O)[C@H](Cc1ccc(O)cc1)NC(=O)[C@H](CCCCN)NC(=O)[C@H](CO)NC(=O)[C@H](Cc1ccc(O)cc1)NC(=O)[C@H](CC(=O)O)NC(=O)[C@H](CO)NC(=O)[C@@H](NC(=O)[C@H](Cc1ccccc1)NC(=O)[C@@H](NC(=O)CNC(=O)[C@H](CCC(N)=O)NC(=O)[C@H](CO)NC(=O)[C@@H](N)Cc1c[nH]c2ccccc12)[C@@H](C)O)[C@@H](C)O)C(=O)N[C@@H](CC(=O)O)C(=O)NC(C)(C)C(=O)N[C@@H](CCCCN)C(=O)N[C@@H](CCCNC(=N)N)C(=O)N[C@@H](C)C(=O)N[C@@H](CCC(N)=O)C(=O)N[C@@H](CCC(=O)O)C(=O)N[C@@H](Cc1ccccc1)C(=O)N[C@H](C(=O)NC(C)(C)C(=O)N[C@@H](Cc1c[nH]c2ccccc12)C(=O)N[C@@H](CC(C)C)C(=O)N[C@@H](CCC(=O)O)C(=O)N[C@@H](CC(=O)O)C(=O)N[C@@H](CCC(=O)O)C(=O)N1CCC[C@H]1C(=O)N[C@@H](CO)C(=O)N[C@@H](CO)C(=O)NCC(=O)N[C@@H](C)C(=O)N1CCC[C@H]1C(=O)N1CCC[C@H]1C(=O)N1CCC[C@H]1C(=O)N[C@@H](CO)C(=O)O)C(C)C
B2: Compound A97 (peptide)
peptide: YSHGTFTSDYSKYLDAARAQEFVKWLEDEPSSGAPPPS-OH
B3: Compound A98 (peptide)
peptide: YSHGTFTSDYTRLLESKRAQEFVKWLEDEPSSGAPPPS-OH
B4: Compound A99 (peptide)
peptide: YSHGTFTSDYSKYLD[Aib]KRAQEFV[Aib]WLEDEPSSGAPPPS-OH
modifications: N-terminus assumed
SMILES: CC(C)C[C@H](NC(=O)[C@H](Cc1ccc(O)cc1)NC(=O)[C@H](CCCCN)NC(=O)[C@H](CO)NC(=O)[C@H](Cc1ccc(O)cc1)NC(=O)[C@H](CC(=O)O)NC(=O)[C@H](CO)NC(=O)[C@@H](NC(=O)[C@H](Cc1ccccc1)NC(=O)[C@@H](NC(=O)CNC(=O)[C@H](Cc1c[nH]cn1)NC(=O)[C@H](CO)NC(=O)[C@@H](N)Cc1ccc(O)cc1)[C@@H](C)O)[C@@H](C)O)C(=O)N[C@@H](CC(=O)O)C(=O)NC(C)(C)C(=O)N[C@@H](CCCCN)C(=O)N[C@@H](CCCNC(=N)N)C(=O)N[C@@H](C)C(=O)N[C@@H](CCC(N)=O)C(=O)N[C@@H](CCC(=O)O)C(=O)N[C@@H](Cc1ccccc1)C(=O)N[C@H](C(=O)NC(C)(C)C(=O)N[C@@H](Cc1c[nH]c2ccccc12)C(=O)N[C@@H](CC(C)C)C(=O)N[C@@H](CCC(=O)O)C(=O)N[C@@H](CC(=O)O)C(=O)N[C@@H](CCC(=O)O)C(=O)N1CCC[C@H]1C(=O)N[C@@H](CO)C(=O)N[C@@H](CO)C(=O)NCC(=O)N[C@@H](C)C(=O)N1CCC[C@H]1C(=O)N1CCC[C@H]1C(=O)N1CCC[C@H]1C(=O)N[C@@H](CO)C(=O)O)C(C)C
B5: Compound A100 (peptide)
peptide: YSHGTFTSDYSKYLD[Aib]KRAQEFV[Aib]WLEDE-OH
modifications: N-terminus assumed
SMILES: CC(C)C[C@H](NC(=O)[C@H](Cc1ccc(O)cc1)NC(=O)[C@H](CCCCN)NC(=O)[C@H](CO)NC(=O)[C@H](Cc1ccc(O)cc1)NC(=O)[C@H](CC(=O)O)NC(=O)[C@H](CO)NC(=O)[C@@H](NC(=O)[C@H](Cc1ccccc1)NC(=O)[C@@H](NC(=O)CNC(=O)[C@H](Cc1c[nH]cn1)NC(=O)[C@H](CO)NC(=O)[C@@H](N)Cc1ccc(O)cc1)[C@@H](C)O)[C@@H](C)O)C(=O)N[C@@H](CC(=O)O)C(=O)NC(C)(C)C(=O)N[C@@H](CCCCN)C(=O)N[C@@H](CCCNC(=N)N)C(=O)N[C@@H](C)C(=O)N[C@@H](CCC(N)=O)C(=O)N[C@@H](CCC(=O)O)C(=O)N[C@@H](Cc1ccccc1)C(=O)N[C@H](C(=O)NC(C)(C)C(=O)N[C@@H](Cc1c[nH]c2ccccc12)C(=O)N[C@@H](CC(C)C)C(=O)N[C@@H](CCC(=O)O)C(=O)N[C@@H](CC(=O)O)C(=O)N[C@@H](CCC(=O)O)C(=O)O)C(C)C
B6: Compound A94 (peptide)
peptide: YSQGTFTSDYSKYLD[Aib]KRAQEFV[Aib]WLEDEPSSGAPPPS
B7: Compound A95 (peptide)
peptide: YSQGTFTSDYSKYLD[Aib]KAAQEFV[Aib]WLEDEPSSGAPPPS
B8: Compound A96 (peptide)
peptide: YSQGTFTSDYSKYLD[Aib]KAAQEFV[Aib]WLEDEPSSGKPPPS
B9: Compound A101 (peptide)
peptide: YGHGTFTSDHSKYLD[Aib]KRAQEFVKWLEDE-OH
modifications: N-terminus assumed
SMILES: CC(C)C[C@H](NC(=O)[C@H](Cc1c[nH]c2ccccc12)NC(=O)[C@H](CCCCN)NC(=O)[C@@H](NC(=O)[C@H](Cc1ccccc1)NC(=O)[C@H](CCC(=O)O)NC(=O)[C@H](CCC(N)=O)NC(=O)[C@H](C)NC(=O)[C@H](CCCNC(=N)N)NC(=O)[C@H](CCCCN)NC(=O)C(C)(C)NC(=O)[C@H](CC(=O)O)NC(=O)[C@H](CC(C)C)NC(=O)[C@H](Cc1ccc(O)cc1)NC(=O)[C@H](CCCCN)NC(=O)[C@H](CO)NC(=O)[C@H](Cc1c[nH]cn1)NC(=O)[C@H](CC(=O)O)NC(=O)[C@H](CO)NC(=O)[C@@H](NC(=O)[C@H](Cc1ccccc1)NC(=O)[C@@H](NC(=O)CNC(=O)[C@H](Cc1c[nH]cn1)NC(=O)CNC(=O)[C@@H](N)Cc1ccc(O)cc1)[C@@H](C)O)[C@@H](C)O)C(C)C)C(=O)N[C@@H](CCC(=O)O)C(=O)N[C@@H](CC(=O)O)C(=O)N[C@@H](CCC(=O)O)C(=O)O
B10: Compound A102 (peptide)
peptide: YSHGTFTSDYSKWLD[Aib]KRAQEFVKWLEDE-OH
modifications: N-terminus assumed
SMILES: CC(C)C[C@H](NC(=O)[C@H](Cc1c[nH]c2ccccc12)NC(=O)[C@H](CCCCN)NC(=O)[C@@H](NC(=O)[C@H](Cc1ccccc1)NC(=O)[C@H](CCC(=O)O)NC(=O)[C@H](CCC(N)=O)NC(=O)[C@H](C)NC(=O)[C@H](CCCNC(=N)N)NC(=O)[C@H](CCCCN)NC(=O)C(C)(C)NC(=O)[C@H](CC(=O)O)NC(=O)[C@H](CC(C)C)NC(=O)[C@H](Cc1c[nH]c2ccccc12)NC(=O)[C@H](CCCCN)NC(=O)[C@H](CO)NC(=O)[C@H](Cc1ccc(O)cc1)NC(=O)[C@H](CC(=O)O)NC(=O)[C@H](CO)NC(=O)[C@@H](NC(=O)[C@H](Cc1ccccc1)NC(=O)[C@@H](NC(=O)CNC(=O)[C@H](Cc1c[nH]cn1)NC(=O)[C@H](CO)NC(=O)[C@@H](N)Cc1ccc(O)cc1)[C@@H](C)O)[C@@H](C)O)C(C)C)C(=O)N[C@@H](CCC(=O)O)C(=O)N[C@@H](CC(=O)O)C(=O)N[C@@H](CCC(=O)O)C(=O)O
B11: Compound A103 (peptide)
peptide: YSHGTFTSDYSKYLD[Aib]ARAQEFV[Aib]WLEDEPSSGAPPPS-OH
modifications: N-terminus assumed
SMILES: CC(C)C[C@H](NC(=O)[C@H](Cc1ccc(O)cc1)NC(=O)[C@H](CCCCN)NC(=O)[C@H](CO)NC(=O)[C@H](Cc1ccc(O)cc1)NC(=O)[C@H](CC(=O)O)NC(=O)[C@H](CO)NC(=O)[C@@H](NC(=O)[C@H](Cc1ccccc1)NC(=O)[C@@H](NC(=O)CNC(=O)[C@H](Cc1c[nH]cn1)NC(=O)[C@H](CO)NC(=O)[C@@H](N)Cc1ccc(O)cc1)[C@@H](C)O)[C@@H](C)O)C(=O)N[C@@H](CC(=O)O)C(=O)NC(C)(C)C(=O)N[C@@H](C)C(=O)N[C@@H](CCCNC(=N)N)C(=O)N[C@@H](C)C(=O)N[C@@H](CCC(N)=O)C(=O)N[C@@H](CCC(=O)O)C(=O)N[C@@H](Cc1ccccc1)C(=O)N[C@H](C(=O)NC(C)(C)C(=O)N[C@@H](Cc1c[nH]c2ccccc12)C(=O)N[C@@H](CC(C)C)C(=O)N[C@@H](CCC(=O)O)C(=O)N[C@@H](CC(=O)O)C(=O)N[C@@H](CCC(=O)O)C(=O)N1CCC[C@H]1C(=O)N[C@@H](CO)C(=O)N[C@@H](CO)C(=O)NCC(=O)N[C@@H](C)C(=O)N1CCC[C@H]1C(=O)N1CCC[C@H]1C(=O)N1CCC[C@H]1C(=O)N[C@@H](CO)C(=O)O)C(C)C

How the values were obtained:
Assay in all cases: cell-based or functional assay
[1] = target: T1, human GLP-1 receptor (GLP-1R) (human, UniProt P43220 24-463)
T1 sequence (P43220 24-463): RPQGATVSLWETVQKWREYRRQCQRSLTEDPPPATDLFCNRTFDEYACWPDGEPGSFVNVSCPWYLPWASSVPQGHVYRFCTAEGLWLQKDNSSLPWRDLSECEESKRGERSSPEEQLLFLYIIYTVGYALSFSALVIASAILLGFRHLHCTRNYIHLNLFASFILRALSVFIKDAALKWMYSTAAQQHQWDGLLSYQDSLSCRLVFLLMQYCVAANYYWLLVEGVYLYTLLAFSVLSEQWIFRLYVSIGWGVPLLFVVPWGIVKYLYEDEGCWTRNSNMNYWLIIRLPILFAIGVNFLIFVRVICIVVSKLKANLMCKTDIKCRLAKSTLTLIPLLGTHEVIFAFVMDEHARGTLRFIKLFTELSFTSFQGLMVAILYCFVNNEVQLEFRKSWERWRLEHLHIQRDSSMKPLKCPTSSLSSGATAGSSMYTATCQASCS

[2] = target: T2, human glucagon receptor (GCGR) (human, UniProt P47871 26-477)
[3] = target: T1, human GLP-1 receptor (GLP-1R); remark: listed apart in the source
[4] = target: T2, human glucagon receptor (GCGR); remark: listed apart in the source
[5] = target: human glucagon receptor (GCGR) (human, UniProt P47871 26-477); remark: listed apart in the source
[6] = target: human GLP-1 receptor (GLP-1R) (human, UniProt P43220 24-463); remark: listed apart in the source
Target sequence in this assay (P43220 24-463): as above

Binder	hGLP1 pEC50 (cAMP) mean (n = 3): 11 point curve starting at 1 nM [3] [pEC50]	hGCGR pEC50 (cAMP) mean (n = 3): 11 point curve starting at 1 nM [4] [pEC50]	also measured
B1			hGLP1 pEC50 (cAMP) mean (n = 9): 11 point curve starting at 500 uM [1]: 5.3 pEC50; hGCGR pEC50 (cAMP) mean (n = 9): 11 point curve starting at 1 uM [2]: 11.7 pEC50
B2	< 9	12.3	
B3	< 9	12.2	
B4	< 9	12.5	
B5	< 9	12.6	
B6			hGCGR pEC50 (cAMP) [5]: 14.1 pEC50; hGLP1 pEC50 (cAMP) [6]: < 9 pEC50
B7			hGCGR pEC50 (cAMP) [5]: 13.3 pEC50; hGLP1 pEC50 (cAMP) [6]: < 9 pEC50
B8			hGCGR pEC50 (cAMP) [5]: 13 pEC50; hGLP1 pEC50 (cAMP) [6]: < 9 pEC50
B9	< 9	11.3	
B10	< 9	12.4	
B11	< 9	11.9	
